In patent US20200283741:
Positions count from the first letter of the chain named. In names and notes the source's numbering stands.

B1: En42FX R105A (protein)
chain: MAPRANTKIIVVGGGGTMGSSTALHLLRAGYTPSNITVLDTYPIPSAQSAGYDLNKIFGISGANKHDLQLSLEAFDMWKNDPLFKPFFHNVGQMDVSSTEEGIKALRRRYQSLLRAGIGLEKTNFLLESEDEILAKAPHFTREQIKGWKGLFCGDGGWLAAAKAINAIGQFLKEQGVKFGFGEAGTFKKPLFADADEKTCIGVETVDGTKYYADKVVLAAGAWSSTLVDLEEQCVSKAWVFAHIQLTPAEAAAYKNTPVIYDGDYGFFIEPDENGIIKVCDEFPGFTHFKMHQPYGSPVPKLISVPRSHAKHPTDTYPHASEVTIKKAINRFLPRFNDKELFNRAMCWCTDTADSNLLVCEHPRWKGFYLATGDSGHSFKLLPNIGKHVVELLEGRLESVFKDAWRWRPGSGDALKSRRAAPAKDLADMPGWRNEAKM
B2: En42FX R105E (protein)
chain: B1 chain with A105E
B3: En42FX R105Q (protein)
chain: B1 chain with A105Q
B4: En42FX R108A (protein)
chain: B1 chain with A105R, R108A
B5: En42FX R108S (protein)
chain: B1 chain with A105R, R108S
B6: En42FX R105N (protein)
chain: B1 chain with A105N

Target: T1, HbS1c-type αF8P
T1 chain: VHLTPVEK

Protein	relative activity on substrate (activity on HbA1c-type αF8P = 100%) [%]
B1	70
B2	69
B3	70
B4	70
B5	61
B6	95

Target: T2, HbC1c-type αF8P
T2 chain: VHLTPKEK

Protein	relative activity on substrate (activity on HbA1c-type αF8P = 100%) [%]
B1	33
B2	31
B3	25
B4	57
B5	10
B6	11

Target: T3, HbA1c-type αF8P (α-fructosyl-valyl-histidyl-leucyl-threonyl-prolyl-glutamyl-glutamyl-lysine)
T3 chain: VHLTPEEK

Protein	relative activity on substrate (reference, designated as 100%) [%]
B1	100
B2	100
B3	100
B4	100
B5	100
B6	100
